Data taken from patent US20190345227A1 (HONG KONG UNIVERSITY OF SCIENCE AND TECHNOLOGY, published 2019).

Assays:
[1] = molecular target: T1, SpyCatcher-elastin-CarHC-elastin-SpyCatcher; assay: Dynamic shear rheology and erosion tests of the covalently cross-linked (SpyTag-SpyCatcher) hydrogel
T1 construct: Recombinant telechelic fusion protein (68 kDa) with two TEV protease sites, expressed in E. coli; also called BCB; SpyCatcher-ELP-carHC-ELP-SpyCatcher
Excerpt: Protein drugs, an important category of modem therapeutics, have a short half-life time inside the body because of rapid plasma clearance and proteolytic degradation, which constitutes a fundamental challenge for their delivery. The feasibility of using the photoresponsive CarHC-ELP hydrogel system to encapsulate and release protein molecules in a controlled manner was investigated. Two recombinant proteins, SpyTag-elastin-like polypeptide-SpyTag-elastin-like polypeptide-SpyTag (represented by the structural linkage “AAA”) (FIG. 6 and FIG. 13) and BCB, were synthesized with an elastin protein fragment to generate a covalently cross-linked ELP hydrogel. The two proteins were dissolved in PBS to make 10 wt % solutions. Gelation was initiated by mixing the two components at a 2:3 molar ratio and a stoichiometric amount of AdoB₁₂ in the dark. Dynamic shear rheology experiments in time-, frequency- and strain-sweep modes and erosion tests further confirmed the formation of a stable hydrogel (G′=0.96 kPa and G″=0.03 Pa) by AAA+BCB+AdoB₁₂ (FIGS. 14A-14C, respectively, and FIG. 15).

[2] = molecular target: T1, SpyCatcher-elastin-CarHC-elastin-SpyCatc …; assay: Size-exclusion chromatography of the ACA+BCB reaction product and of the light-degraded gel. The major peak eluted at the void volume. The SpyTag-SpyCatcher bond is covalent.
Method: Using an Escherichia coli expression system, sufficient amounts of the ACA (98 mg/L) and BCB (66 mg/L) proteins with high purity (FIG. 6-9) were produced and isolaged. After extensive dialysis against distilled water and lyophilization, the resulting protein powders were readily dissolved in PBS. The two protein solutions, ACA and BCB (10 wt % in PBS), were mixed at an equimolar ratio immediately followed by addition of a stoichiometric amount of AdoB 12 to initiate gelation at room temperature in the dark. A red gel-like material was formed within 5 min; the gelation typically continued for at least 7 h in the dark before any subsequent analysis. The resulting gel was sensitive to light and converted to liquid on exposure to white LED light (30 klux) within 20 min (FIG. 2B). observed gel-sol transition can be explained by the light-induced disassembly of CarHC tetramers (FIGS. 1A & 1B). […] This SEC result further confirmed a sufficient pymerization of the CarHC proteins enabled by the SpyTag-SpyCatcher reaction during gelation.

Binder	binding result [1]	binding result [2]
SpyTag-elastin-like polypeptide-SpyTag-elastin-like polypeptide-SpyTag (other, Recombinant protein with three SpyTags; It forms the covalent network with BCB; also called AAA; SpyTag-ELP-SpyTag-ELP-SpyTag) MKGSSHHHHHHVDAHIVMVDAYKPTKLDGHGVGVPGVGVPGVGVPGEGVPGVGVPGVGVPGVGVPGVGVPGEGVPGVGVPGVGVPGVGVPGVGVPGEGVPGVGVPGVGELAHIVMVDAYKPTKTSVPGVGVPGVGVPGEGVPGVGVPGVGVPGVGVPGVGVPGEGVPGVGVPGVGVPGVGVPGVGVPGEGVPGVGVPGVGVPGGLLDAHIVMVDAYKPTKLEWKK	binds	
SpyTag-elastin-CarHC-elastin-SpyTag (other, Recombinant telechelic fusion protein (41 kDa) expressed in E. coli and purified on HisTrap; also called ACA; SpyTag-ELP-carHC-ELP-SpyTag) MKGSSHHHHHHVDAHIVMVDAYKPTKLDGHGVGVPGVGVPGVGVPGEGVPGVGVPGVGVPGVGVPGVGVPGEGVPGVGVPGVGVPGVGVPGVGVPGEGVPGVGVPGVGELPEDLGTGLLEALLRGDLAGAEALFRRGLRFWGPEGVLEHLLLPVLREVGEAWHRGEIGVAEEHLASTFLRARLQELLDLAGFPPGPPVLVTTPPGERHEIGAMLAAYHLRRKGVPALYLGPDTPLPDLRALARRLGAGAVVLSAVLSEPLRALPDGALKDLAPRVFLGGQGAGPEEARRLGAEYMEDLKGLAEALWLPRGPEKEAITSVPGVGVPGVGVPGEGVPGVGVPGVGVPGVGVPGVGVPGEGVPGVGVPGVGVPGVGVPGVGVPGEGVPGVGVPGVGVPGGLLDAHIVMVDAYKPTKLEWKK		binds
